Sequences and labels used below:
B5: human IL-23 (ligand)
chain 1: RAVPGGSSPAWTQCQQLSQKLCTLAWSAHPLVGHMDLREEGDEETTNDVPHIQCGDGCDPQGLRDNSQFCLQRIHQGLIFYEKLLGSDIFTGEPSLLPDSPVGQLHASLLGLSQLLQPEGHHWETQQIPSLSPSQPWQRLLLRFKILRSLQAFVAVAARVFAHGAATLSP
chain 2: IWELKKDVYVVELDWYPDAPGEMVVLTCDTPEEDGITWTLDQSSEVLGSGKTLTIQVKEFGDAGQYTCHKGGEVLSHSLLLLHKKEDGIWSTDILKDQKEPKNKTFLRCEAKNYSGRFTCWWLTTISTDLTFSVKSSRGSSDPQGVTCGAATLSAERVRGDNKEYEYSVECQEDSACPAAEESLPIEVMVDAVHKLKYENYTSSFFIRDIIKPDPPKNLQLKPLKNSRQVEVSWEYPDTWSTPHSYFSLTFCVQVQGKSKREKKDRVFTDKTSATVICRKNASISVRAQDRYYSSSWSEWASVPCS
notes: Heterodimer of p19 and p40; in the proliferation assays CAT # HZ-1254, HumanZyme; also called hIL-23; hIL23

“And” between values parts separate entries of the source, which are not always exact repeats. Equal entries are not always repeated.

Experiment [1] deals with B5. Nature of the experiment: competition ELISA (ECL): 0.05 nM biotinylated hIL-23 pre-incubated with varied binder, free hIL-23 captured on coated soluble hIL-23R (competitor); single measurement. On the procedure: (§1) The IgG antibody served as the positive control. […] The detailed experimental procedure was described as follows.
(§2) After washing, 60 μl MSD Read Buffer T (2×) was added to each well and the plate was read within 15 min.
(§3) The resulting Electrochemoluminescence (ECL) signal was measured with a suitable instrument such as the SECTOR Imager 2400 (Meso Scale Discovery).

The target in experiment [2] is B5. In words: competition ELISA (ECL): 0.05 nM biotinylated hIL-23 pre-incubated with varied binder, free hIL-23 captured on coated soluble hIL-23R (competitor); average of two measurements. On the procedure:
as §1, §2, §3
In general terms: ELISA stands for enzyme-linked immunosorbent assay.

For experiment [3], the target named is T1, lipocalin mutein SEQ ID NO: 5.
T1 construct: Human tear lipocalin (Tlc) mutein specific for IL-17A; also called Tlc mutein
T1 sequence (chain, as listed by the source): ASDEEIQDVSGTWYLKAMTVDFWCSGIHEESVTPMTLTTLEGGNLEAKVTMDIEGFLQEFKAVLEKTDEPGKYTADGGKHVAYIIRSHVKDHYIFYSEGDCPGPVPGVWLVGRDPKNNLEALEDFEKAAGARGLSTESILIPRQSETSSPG
In words: solution competition ELISA: 0.5 nM SEQ ID NO: 5 pre-incubated with varied ligand, free mutein captured on immobilised biotinylated hIL-17A (competitor). On the procedure:
(§4) In the following detailed experimental protocol, incubation and washing steps were performed as described above in the competition ELISA protocol. A 384-well plate suitable for fluorescence measurements (Greiner FLUOTRAC™ 600, black flat bottom, high-binding) was coated with 20 μl of Neutravidin at a concentration of 5 μg/ml in PBS over night at 4° C. After washing, the Neutravidin-coated wells were blocked with 100 μl blocking buffer (PBS-T/BSA) for 1h at room temperature.

In experiment [4] the target is B5. Nature of the experiment: competition ELISA (ECL), 0.2 nM biotinylated hIL-23, coated soluble hIL-23R.
The target of experiment [5] is B5. In words: cell-based or functional assay.
Experiment [6] deals with B5. Nature of the experiment: cell-based or functional assay. The source holds these as a separate data set.
Experiment [7] deals with B5. Nature of the experiment: competition ELISA (ECL): 0.2 nM biotinylated hIL-23 pre-incubated with varied mutein, free hIL-23 captured on coated soluble hIL-23R (competitor).
The target of experiment [8] is B5. Nature of the experiment: competition ECL assay: biotinylated hIL-23 pre-incubated with varied binder, free hIL-23 captured on coated soluble hIL-23R (competitor); Example 28.
For experiment [9], the target named is T2, lipocalin mutein SEQ ID NO: 10.
T2 construct: Human NGAL (lipocalin 2) mutein specific for IL-23p19
T2 chain: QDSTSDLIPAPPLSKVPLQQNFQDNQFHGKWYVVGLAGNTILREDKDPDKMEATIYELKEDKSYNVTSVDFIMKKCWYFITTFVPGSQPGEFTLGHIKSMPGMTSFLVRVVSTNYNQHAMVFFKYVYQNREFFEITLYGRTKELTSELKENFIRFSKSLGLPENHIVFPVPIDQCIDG
Nature of the experiment: solution competition ELISA: 1 nM SEQ ID NO: 10 pre-incubated with varied ligand, free mutein captured on immobilised biotinylated hIL-23 (competitor). The method, then:
(§5) In the following detailed experimental protocol, incubation and washing steps were performed as described above in the competition ELISA protocol. A 384-well plate suitable for fluorescence measurements (Greiner FLUOTRAC™ 600, black flat bottom, high-binding) was coated with 20 μl of Neutravidin at a concentration of 5 μg/ml in PBS over night at 4° C. After washing, the Neutravidin-coated wells were blocked with 100 μl PBS-T/BSA for 1h at room temperature.

The target in experiment [10] is T3, lipocalin mutein SEQ ID NO: 9.
T3 construct: Human NGAL (lipocalin 2) mutein specific for IL-23p19
T3 chain: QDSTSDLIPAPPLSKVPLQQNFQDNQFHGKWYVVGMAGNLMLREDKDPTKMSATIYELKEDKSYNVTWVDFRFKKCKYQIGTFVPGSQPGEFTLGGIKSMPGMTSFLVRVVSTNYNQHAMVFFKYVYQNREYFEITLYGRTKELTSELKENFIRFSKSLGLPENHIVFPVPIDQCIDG
Nature of the experiment: solution competition ELISA: 10 nM SEQ ID NO: 9 pre-incubated with varied ligand, free mutein captured on immobilised biotinylated hIL-23 (competitor). On the procedure: as §5

The target in experiment [11] is T4, lipocalin mutein SEQ ID NO: 6.
T4 construct: Tear lipocalin mutein specific for IL-23p19
T4 sequence (chain, as listed by the source): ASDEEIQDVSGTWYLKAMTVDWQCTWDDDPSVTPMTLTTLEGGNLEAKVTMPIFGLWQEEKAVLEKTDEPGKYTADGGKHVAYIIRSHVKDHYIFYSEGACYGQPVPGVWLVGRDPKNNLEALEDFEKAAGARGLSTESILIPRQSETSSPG
In words: solution competition ELISA: 100 nM mutein (C-terminal Streptag) pre-incubated with varied ligand, free mutein captured on immobilised biotinylated hIL-23 (competitor). On the procedure: as §4
(§6) Note that the lipocalein muteins contained a C-terminal Streptag fusion to allow binding and subsequent detection with the aid of an anti-Streptag antibody.
(§7) The residual supernatants were discarded and 20 μl of HRP-conjugated anti-Streptag IgG antibody (Genscript) was added at a predetermined optimal concentration in PBS-T/BSA and incubated for 1 h at RT. After washing, 20 μl fluorogenic HRP substrate (Quantablue, Pierce) was added to each well, and the reaction allowed to proceed for 30 minutes.

Experiment [12] deals with T5, lipocalin mutein SEQ ID NO: 12.
T5 construct: Tear lipocalin mutein specific for IL-23p19
T5 sequence (chain, as listed by the source): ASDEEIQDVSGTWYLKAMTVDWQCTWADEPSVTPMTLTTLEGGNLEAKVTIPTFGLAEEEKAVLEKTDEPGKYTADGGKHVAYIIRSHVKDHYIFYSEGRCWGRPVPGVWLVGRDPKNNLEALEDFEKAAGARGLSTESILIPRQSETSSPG
Described as above. The method, then:
as §4, §6, §7

Experiment [13] concerns the target T6, lipocalin mutein SEQ ID NO: 13.
T6 construct: Tear lipocalin mutein specific for IL-23p19
The description is as above. On the procedure:
as §4, §6, §7

The target of experiment [14] is human IL-17A (human, UniProt Q16552 24-155). In words: cell-based or functional assay.

T6 sequence (chain, as listed by the source): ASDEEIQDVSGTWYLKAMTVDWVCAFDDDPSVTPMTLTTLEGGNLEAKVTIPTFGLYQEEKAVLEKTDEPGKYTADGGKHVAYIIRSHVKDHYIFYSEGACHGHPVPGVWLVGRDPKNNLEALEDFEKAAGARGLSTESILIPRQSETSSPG

B1: IgG antibody (comprising the amino acids shown in SEQ ID NOs: 51 and 52) (antibody, V domains shown)
VH: QVQLVQSGAEVKKPGASVKVSCKASGYIFITYWMTWVRQAPGQGLEWMGQIFPASGSADYNEKFEGRVTMTTDTSTSTAYMELRSLRSDDTAVYYCARGGGGFAYWGQGTLVTVSS
VL: DIQMTQSPSSLSASVGDRVTITCRTSENIYSYLAWYQQKPGKAPKLLIYNAKTLAEGVPSRFSGSGSGTDFTLTISSLQPEDFATYYCQHHYGIPFTFGQGTKVEIKR
notes: also called positive control IgG
The term IC50 denotes the concentration that inhibits the measured activity by half. A low value points to inhibition by little substance. For the molecule B1, the IC50 is 0.22 nM and 0.29 nM in [1]; 0.26 nM in [2].

B2: cynomolgus monkey IL-17A (ligand)
chain: GIAIPRNSGCPNSEDKNFPRTVMVNLNIHNRNTSTNPKRSSDYYNRSTSPWNLHRNEDPERYPSVIWEAKCRHLGCVKADGNVDYHMNSVPIQQEILVLRREPRHCPNSFRLEKILVSVGCTCVTPIVHHVA
notes: also called cIL-17A; cIL-17-A
Regarding B2, the IC50 in experiment [3] is 0.3 nM.

B3: negative control SEQ ID NO: 11 (designed binder)
chain: QDSTSDLIPAPPLSKVPLQQNFQDNEFHGKWYVVGLAGNAILREDKDPQKMYATIYELKEDKSYNVTSVLFRKKKCDYWIRTFVPGSQPGEFTLGNIKSYPGLTSYLVRVVSTNYNQHAMVFFKKVSQNREYFKITLYGRTKELTSELKENFIRFSKSLGLPENHIVFPVPIDQCIDG
B3: the binding result in experiment [4] is “no binding (tested: starting concentration 500 nM)”.

B4: lipocalin mutein SEQ ID NO: 15 (designed binder)
chain: QDSTSDLIPAPPLSKVPLQQNFQDNQFHGKWYVVGEAGNLLLREDKDPRKMTATIYELKEDKSYNVTRVEFGVKTYKYQIGTFVPGSQPGEFTLGGIKSMPGMTSFLVRVVSTNYNQHAMVFFKYVYQNREYFEITLYGRTKELTSELKENFIRFSKSLGLPENHIVFPVPIDQAIDG
notes: IL-23p19-specific mutein
For the molecule B4, in experiment [5], the “IC50, hIL-23-induced proliferation of Ba/F3 cells expressing hIL-23R and hIL-12Rβ1” value stood at 3.8 nM. In addition, in experiment [6], the “EC50 [nM] AVERAGE, hIL-23-induced proliferation of Ba/F3 cells expressing hIL-23R and hIL-12Rβ1” value was 0.6 nM; the “EC50 [nM] Exp 1, hIL-23-induced proliferation of Ba/F3 cells expressing hIL-23R and hIL-12Rβ1” value is 0.3 nM; the “EC50 [nM] Exp 2, hIL-23-induced proliferation of Ba/F3 cells expressing hIL-23R and hIL-12Rβ1” value was 0.4 nM; the “EC50 [nM] Exp 3, hIL-23-induced proliferation of Ba/F3 cells expressing hIL-23R and hIL-12Rβ1” value is 1 nM. The “EC50 [nM] Exp 4, hIL-23-induced proliferation of Ba/F3 cells expressing hIL-23R and hIL-12Rβ1” value in experiment [6] was found to be 0.7 nM. In experiment [7], the IC50 came out at 0.3 nM. Also, the IC50 in experiment [8] was 0.27 nM.

Regarding B5, the IC50 in experiment [9] is 1.4 nM; in experiment [10], 55 nM; in experiment [11] it was 89 nM; in [12], 66 nM; in experiment [13], 24 nM.

B6: mouse IL-23 (ligand)
chain 1: VPRSSSPDWAQCQQLSRNLCMLAWNAHAPAGHMNLLREEEDEETKNNVPRIQCEDGCDPQGLKDNSQFCLQRIRQGLAFYKHLLDSDIFKGEPALLPDSPMEQLHTSLLGLSQLLQPEDHPRETQQMPSLSSSQQWQRPLLRSKILRSLQAFLAIAARVFAHGAATLTEPLVPTA
chain 2: MWELEKDVYVVEVDWTPDAPGETVNLTCDTPEEDDITWTSDQRHGVIGSGKTLTITVKEFLDAGQYTCHKGGETLSHSHLLLHKKENGIWSTEILKNFKNKTFLKCEAPNYSGRFTCSWLVQRNMDLKFNIKSSSSSPDSRAVTCGMASLSAEKVTLDQRDYEKYSVSCQEDVTCPTAEETLPIELALEARQQNKYENYSTSFFIRDIIKPDPPKNLQMKPLKNSQVEVSWEYPDSWSTPHSYFSLKFFVRIQRKKEKMKETEEGCNQKGAFLVEKTSTEVQCKGGNVCVQAQDRYYNSSCSKWACVPCRVRS
notes: also called mIL-23
Turning to B6, the IC50 in [9] came out at 361 nM; in experiment [10], 88 nM.

B7: ABD fusion (SEQ ID NO: 42) (designed binder)
chain: QDSTSDLIPAPPLSKVPLQQNFQDNQFHGKWYVVGEAGNLLLREDKDPRKMTATIYELKEDKSYNVTRVEFGVKTYKYQIGTFVPGSQPGEFTLGGIKSMPGMTSFLVRVVSTNYNQHAMVFFKYVYQNREYFEITLYGRTKELTSELKENFIRFSKSLGLPENHIVFPVPIDQAIDGSAGAVDANSLAEAKVLANRELDKYGVSDYYKNLINNAKTVEGVKALIDEILAALP
As for B7, in experiment [5], the “IC50 (experiment of FIG. 19), hIL-23-induced proliferation of Ba/F3 cells expressing hIL-23R and hIL-12Rβ1” value came out at 0.22 nM; the “IC50 (three independent experiments), hIL-23-induced proliferation of Ba/F3 cells expressing hIL-23R and hIL-12Rβ1” value was 0.41 nM.

B8: benchmark antibody 2 (antibody, human IgG4, kappa, V domains shown)
VH: QVQLVQSGAEVKKPGSSVKVSCKASGYSFTDYHISWVRQAPGQGLEWMGVINPEYGTTDYNQRFKGRVTITADESTSTAYMELSSLRSEDTAVYYCARYDYFTGTGAYWGQGTLVTVSS
VL: DIVMTQTPLSLSVTPGQPASISCRSSQSLKHSRGNTFLHWYLQKPGQSPQLLIYKVSNRFIGVPDRFSGSGSGTDFTLKISRVEAEDVGVYYCSQSTHYPFTFGQGTKLEIKR
On to B8, for which, in experiment [14], the “IC50, hIL-17A-induced secretion of G-CSF in U87-MG cells” value stood at 0.6 nM.
